From US20240327534A1 (HARPOON THERAPEUTICS, published 2024) come the findings set out here.

The term Kd denotes the concentration at which binding is half-saturated. Read a low Kd as higher affinity.

The chains are these.
T1: human BCMA on BCMA expressing cell lines (human, UniProt Q02223 1-184)
T1 sequence: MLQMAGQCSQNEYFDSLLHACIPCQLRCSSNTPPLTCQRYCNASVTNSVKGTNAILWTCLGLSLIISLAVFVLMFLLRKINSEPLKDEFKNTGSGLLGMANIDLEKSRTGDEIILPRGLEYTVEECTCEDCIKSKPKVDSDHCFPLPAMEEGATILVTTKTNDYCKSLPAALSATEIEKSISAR

T2: human BCMA protein (human, UniProt Q02223 1-54, limits assumed)
T2 sequence: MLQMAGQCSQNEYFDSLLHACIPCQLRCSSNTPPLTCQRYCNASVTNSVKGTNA

B1: BH2T TriTAC (protein, part only; not given: anti-albumin and anti-CD3 domains, part only)
chain, part: EVQLVESGGGLVQPGRSLTLSCAASTNIFSISPMGWYRQAPGKQRELVAAIHGFSTLYADSVKGRFTISRDNAKNSIYLQMNSLRPEDTALYYCNKVPWGDYHPRNVYWGQGTQVTVSSHHHHHH
B2: BCMA targeting trispecific protein 02G01 (other)
VHH: EVQLVESGGGLVQPGRSLTLSCAASTNIFSINPMGWYRQAPGKQRELVAAIHGFDTLYADSVKGRFTISRDNAKNSIYLQMNSLRPEDTALYYCNKVPWGDYHPRNVSWGQGTQVTVSS
notes: trispecific; not shown: the C-terminal 6xHis tag follows those missing domains and is left out
B3: BCMA targeting trispecific protein 02E05 (other)
VHH: B2 VHH with I31R, N32S, F54I, D55S, R105G, S108Y
notes: trispecific; also called 02E05 TriTAC; not shown: the C-terminal 6xHis tag follows those domains and is left out
B4: BCMA targeting trispecific protein 02G06 (other, not shown: large carriers; small tags and cut ends)
VHH: B2 VHH with I31G, N32S, F54N, D55S, R105G, S108Y
notes: trispecific
B5: BCMA targeting trispecific protein 02G09 (other)
VHH: B2 VHH with I31D, N32S, D55S, S108A
notes: trispecific; not shown: The C-terminal 6xHis tag is left out because it follows these missing domains
B6: BCMA targeting trispecific protein 02F02 (other)
VHH: B2 VHH with I31K, N32S, F54S, D55S, R105G, S108Y
notes: trispecific; also called 02F02 TriTAC; not shown: The C-terminal 6xHis tag is left out because it follows these missing domains
B7: BCMA targeting trispecific protein 02H11 (other)
VHH: B2 VHH with F29T, N32S, F54E, D55S, S108Y
notes: trispecific; not shown: the C-terminal 6xHis tag follows those domains and is left out
B8: BCMA targeting trispecific protein 02H01 (other, not shown: large carriers; small tags and cut ends)
VHH: B2 VHH with I31K, N32S, F54S, D55S, S108Y
notes: trispecific
B9: BCMA targeting trispecific protein 02H04 (other)
VHH: B2 VHH with I31V, N32S, F54N, D55S, S108Y
notes: as for B7
B10: BCMA targeting trispecific protein 02G07 (other, not shown: large carriers; small tags and cut ends)
VHH: B2 VHH with N32T, F54E, D55S, N106D, S108Y
notes: trispecific
B11: BCMA targeting trispecific protein 02E06 (other, not shown: large carriers; small tags and cut ends)
VHH: B2 VHH with I31D, N32S, D55S, L57F, R105G, S108Y
notes: trispecific; also called 02E06 TriTAC
B12: BCMA targeting trispecific protein 02G05 (other, not shown: large carriers; small tags and cut ends)
VHH: B2 VHH with F29T, N32S, F54N, D55S, R105G, S108Y
notes: trispecific
B13: BCMA targeting trispecific protein 02H06 (other)
VHH: B2 VHH with F29R, N32S, F54S, D55S, S108V
notes: as for B5
B14: BCMA targeting trispecific protein 01G08 (other, not shown: large carriers; small tags and cut ends)
VHH: B2 VHH with F29Q, N32S, D55E, R105G, S108Y
notes: trispecific; also called 01G08 TriTAC
B15: BCMA targeting trispecific protein 02H05 (other)
VHH: B2 VHH with I28Q, N32S, F54K, D55S, S108V
notes: as for B5
B16: BCMA targeting trispecific protein 02B06 (other, not shown: large carriers; small tags and cut ends)
VHH: B2 VHH with I31N, N32S, D55S, R105G, S108Y
notes: trispecific; also called 02B06 TriTAC
B17: BCMA targeting trispecific protein 02G02 (other)
VHH: B2 VHH with N32T, F54A, D55S, R105G, S108Y
notes: trispecific; also called 02G02 TriTAC; not shown: anti-albumin domain, anti-CD3 domain and the linkers of the trispecific (TriTAC) format
B18: BCMA targeting trispecific protein 02F04 (other, not shown: large carriers; small tags and cut ends)
VHH: B2 VHH with I31S, N32S, D55S, R105G, S108Y
notes: trispecific; also called 02F04 TriTAC
B19: BCMA targeting trispecific protein 01F07 (other, not shown: large carriers; small tags and cut ends)
VHH: B2 VHH with I31T, N32S, D55S, L57I, R105G, S108Y
notes: trispecific; also called 01F07 TriTAC
B20: BCMA targeting trispecific protein 02G08 (other, not shown: large carriers; small tags and cut ends)
VHH: B2 VHH with F29D, N32S, F54E, D55S, S108T
notes: trispecific
B21: BCMA targeting trispecific protein 02H09 (other, not shown: large carriers; small tags and cut ends)
VHH: B2 VHH with I31R, N32S, F54S, D55S, R105G, S108Y
notes: trispecific
B22: BCMA targeting trispecific protein 01H08 (other)
VHH: B2 VHH with F29M, N32S, D55S, L57V, R105G, S108Y
notes: trispecific; also called 01H08 TriTAC; not shown: the C-terminal His6 follows those missing domains and is left out
B23: BCMA targeting trispecific protein 02G11 (other, not shown: large carriers; small tags and cut ends)
VHH: B2 VHH with F29D, N32S, F54S, D55S, S108T
notes: trispecific
B24: 01F07-M34G TriTAC (other, not shown: large carriers; small tags and cut ends)
VHH: B2 VHH with I31T, N32S, M34G, D55S, L57I, R105G, S108Y
notes: trispecific; also called 01F01-M34G
B25: 01F07-M34Y TriTAC (other)
VHH: B2 VHH with I31T, N32S, M34Y, D55S, L57I, R105G, S108Y
notes: trispecific; not shown: anti-albumin domain, anti-CD3 domain and the linkers of the TriTAC; the C-terminal His6 that follows them is left out
B26: 02G02-M34Y TriTAC (other, not shown: large carriers; small tags and cut ends)
VHH: B2 VHH with N32T, M34Y, F54A, D55S, R105G, S108Y
notes: trispecific
B27: 02G02-M34G TriTAC (other, not shown: large carriers; small tags and cut ends)
VHH: B2 VHH with N32T, M34G, F54A, D55S, R105G, S108Y
notes: trispecific

Residue numbers refer to the chain shown, from its start. In names and notes the source's numbering stands.

The first assay deals with T1, human BCMA on BCMA expressing cell lines. Nature of the assay: cell-based or functional assay.
Regarding B1, the TDCC Jeko1 EC50 came out at 320 pM, the TDCC MOLP-8 EC50 stood at 200 pM and the TDCC OPM-2 EC50 worked out at 160 pM.

Another assay has the same target. Kind of assay: cell-based or functional assay. The source holds these as a separate data set.
On to B2, for which the “TDCC EC50 (EJM cells)” value was determined as 10.8 pM.

For B3, the “TDCC EC50 (EJM cells)” value was 1.37 pM.

Regarding B4, the “TDCC EC50 (EJM cells)” value stood at 3.39 pM.

For the molecule B5, the “TDCC EC50 (EJM cells)” value came out at 39.6 pM.

Regarding B6, the “TDCC EC50 (EJM cells)” value came out at 1.36 pM.

In the case of B7, the “TDCC EC50 (EJM cells)” value was 77.5 pM.

For B8, the “TDCC EC50 (EJM cells)” value came to 54.2 pM.

B9: the “TDCC EC50 (EJM cells)” value was 59.9 pM.

As for B10, the “TDCC EC50 (EJM cells)” value is 44.6 pM.

In the case of B11, the “TDCC EC50 (EJM cells)” value came to 1.57 pM.

Consider B12, for which the “TDCC EC50 (EJM cells)” value is 4.33 pM.

With B13, the “TDCC EC50 (EJM cells)” value was found to be 31.9 pM.

As for B14, the “TDCC EC50 (EJM cells)” value amounted to 1.91 pM.

As for B15, the “TDCC EC50 (EJM cells)” value turned out to be 38.9 pM.

Consider B16, for which the “TDCC EC50 (EJM cells)” value turned out to be 1.65 pM.

With B17, the “TDCC EC50 (EJM cells)” value is 1.08 pM.

In the case of B18, the “TDCC EC50 (EJM cells)” value was found to be 1.72 pM.

On to B19, for which the “TDCC EC50 (EJM cells)” value was found to be 0.702 pM.

As for B20, the “TDCC EC50 (EJM cells)” value was determined as 28.6 pM.

Consider B21, for which the “TDCC EC50 (EJM cells)” value amounted to 2.88 pM.

Regarding B22, the “TDCC EC50 (EJM cells)” value came out at 0.341 pM.

With B23, the “TDCC EC50 (EJM cells)” value is 23.8 pM.

A further assay deals with T2, human BCMA protein. Nature of the assay: affinity to human BCMA protein, method not stated.
On to B2, for which the affinity, expressed as Kd, was 16300 pM.

On to B3, for which binding was put at a Kd of 6530 pM.

The molecule B4 had a Kd of 7500 pM.

With B5, the equilibrium dissociation constant (Kd) stood at 34400 pM.

The molecule B6 displayed a dissociation constant (Kd) of 6730 pM.

The molecule B7 returned a Kd of 27500 pM.

The molecule B8 yielded a Kd of 35600 pM.

The molecule B9 yielded a dissociation constant Kd of 31100 pM.

In the case of B10, the Kd worked out at 19300 pM.

B11 returned a Kd of 6310 pM.

The molecule B12 had a Kd of 7120 pM.

B13 had a Kd of 23300 pM.

As for B14, the dissociation constant Kd came to 6270 pM.

Turning to B15, the Kd was determined as 19600 pM.

For B16, the Kd is 6770 pM.

As to B17, the Kd is 5260 pM.

B18: the Kd is 6750 pM.

As for B19, the Kd is 4180 pM.

Consider B20, for which the Kd stood at 18000 pM.

As to B21, the Kd was determined as 6830 pM.

B22 had a Kd of 2860 pM.

As for B23, binding was characterised by a dissociation constant (Kd) of 20500 pM.

The next assay addresses T1, human BCMA on BCMA expressing cell lines. Kind of assay: cell-based or functional assay. The source holds these as a separate data set.
Regarding B24, the “TDCC Jeko1 EC50” value amounted to 9 pM, the “TDCC MOLP-8 EC50” value was 2.2 pM and the “TDCC OPM-2 EC50” value was 5.6 pM.

For the molecule B3, the “TDCC Jeko1 EC50” value amounted to 11 pM, the “TDCC MOLP-8 EC50” value turned out to be 3.3 pM and the “TDCC OPM-2 EC50” value is 12 pM.

For the molecule B6, the “TDCC Jeko1 EC50” value was found to be 8.2 pM, the “TDCC MOLP-8 EC50” value is 3.5 pM and the “TDCC OPM-2 EC50” value was determined as 10 pM.

Take B25: the “TDCC Jeko1 EC50” value is 5.6 pM, the “TDCC MOLP-8 EC50” value was found to be 1.5 pM and the “TDCC OPM-2 EC50” value worked out at 3.6 pM.

On to B11, for which the “TDCC Jeko1 EC50” value amounted to 9.1 pM, the “TDCC MOLP-8 EC50” value was 2.4 pM and the “TDCC OPM-2 EC50” value was determined as 7.4 pM.

Consider B14, for which the “TDCC Jeko1 EC50” value is 15 pM, the “TDCC MOLP-8 EC50” value turned out to be 2.5 pM and the “TDCC OPM-2 EC50” value was 6.9 pM.

For the molecule B16, the “TDCC Jeko1 EC50” value came to 11 pM, the “TDCC MOLP-8 EC50” value is 2.8 pM and the “TDCC OPM-2 EC50” value was found to be 9.7 pM.

As to B17, the “TDCC Jeko1 EC50” value is 11 pM, the “TDCC MOLP-8 EC50” value stood at 2.8 pM and the “TDCC OPM-2 EC50” value was 6.6 pM.

Take B18: the “TDCC Jeko1 EC50” value stood at 10 pM, the “TDCC MOLP-8 EC50” value was 2.5 pM and the “TDCC OPM-2 EC50” value amounted to 7.3 pM.

Take B19: the “TDCC Jeko1 EC50” value was 5.3 pM, the “TDCC MOLP-8 EC50” value was determined as 1.5 pM and the “TDCC OPM-2 EC50” value came to 4.4 pM.

For the molecule B26, the “TDCC Jeko1 EC50” value is 11 pM, the “TDCC MOLP-8 EC50” value is 5.6 pM and the “TDCC OPM-2 EC50” value came to 6.2 pM.

Take B22: the “TDCC Jeko1 EC50” value came out at 4 pM, the “TDCC MOLP-8 EC50” value was determined as 0.94 pM and the “TDCC OPM-2 EC50” value was 3.1 pM.

For the molecule B27, the “TDCC Jeko1 EC50” value is 12 pM, the “TDCC MOLP-8 EC50” value turned out to be 4 pM and the “TDCC OPM-2 EC50” value turned out to be 7.1 pM.

In a further assay the target is T2, human BCMA protein. Nature of the assay: affinity of purified protein to human BCMA protein, method not stated.
Molecule B24 displayed a Kd of 6000 pM.

For the molecule B25, the affinity, expressed as Kd, was 3000 pM.

B26 gave a Kd of 5000 pM.

The molecule B27 yielded a Kd of 7000 pM.
